{"source": "FireProtDB (doi:10.1016/j.str.2006.07.007)", "parents": {"B1": {"name": "Azurin, P00282 (parent)", "chain": "MLRKLAAVSLLSLLSAPLLAAECSVDIQGNDQMQFNTNAITVDKSCKQFTVNLSHPGNLPKNVMGHNWVLSTAADMQGVVTDGMASGLDKDYLKPDDSRVIAHTKLIGSGEKDSVTFDVSKLKEGEQYMFFCTFPGHSALMKGTLTLK"}}, "variants_of": "B1", "details": "Pseudomonas aeruginosa (strain ATCC 15692 / DSM 22644 / CIP 104116 / JCM 14847 / LMG 12228 / 1C / PRS 101 / PAO1); pH 7; 25 °C; GdnHCl; Fluorescence; Phosphate 100 mM; reversible: Yes; structure 5AZU; whole UniProt chain shown"}
{"variant": "V25A", "values": [{"measurement": "ddG of mutation (higher = less stable)", "value": 0, "unit": "kcal/mol"}, {"measurement": "unfolding free energy", "value": 5.98, "unit": "kcal/mol"}]}
{"variant": "A102G", "values": [{"measurement": "ddG of mutation (higher = less stable)", "value": 3.11, "unit": "kcal/mol"}, {"measurement": "unfolding free energy", "value": 2.87, "unit": "kcal/mol"}]}
{"variant": "I27A", "values": [{"measurement": "ddG of mutation (higher = less stable)", "value": 3.11, "unit": "kcal/mol"}, {"measurement": "unfolding free energy", "value": 2.87, "unit": "kcal/mol"}]}
{"variant": "V80G", "values": [{"measurement": "ddG of mutation (higher = less stable)", "value": 3.11, "unit": "kcal/mol"}, {"measurement": "unfolding free energy", "value": 2.87, "unit": "kcal/mol"}]}
{"variant": "L145A", "values": [{"measurement": "ddG of mutation (higher = less stable)", "value": 0.72, "unit": "kcal/mol"}, {"measurement": "unfolding free energy", "value": 5.26, "unit": "kcal/mol"}]}
